Target: porcine PD-1 (programmed death 1) expressed on HEK293T cells (porcine)
Experiment: flow cytometry on cells; HEK293T cells transfected with pcDNA3.1-PD-1 (or empty vector) for 24 h; purified PD-L1-Fc added and incubated for 1 h; percent of positive cells read

In the case of porcine PD-L1-rabbit Fc fusion protein, the percent of cells positive is reported as 38.3%.
